This is an account of results in patent US9012398B2.

The experiment deals with human GLP-1 receptor (human) (UniProt P43220).
With “N-ε^20-{2-(2-(2-(2-[2-(2-(4-(hexadecanoylamino)-4- carboxybutyrylamino)ethoxy)ethoxy]acetylamino)ethoxy)ethoxy) acetyl)}-[Gln^28,Lys^20]Exendin-4-amide (from UniProt P26349) (peptide)”, the GLP1cAMPma (3693) [EC50 (nM)] Mean Value is 0.033 nM. The substance “N-ε^20-{2-(2-(2-(2-[2-(2-(4-(hexadecanoylamino)-4- carboxybutyrylamino)ethoxy)ethoxy]acetylamino)ethoxy)ethoxy) acetyl)}-[Leu^14,Gln^28,Lys^20]Exendin-4-amide (from UniProt P26349) (peptide)” had a GLP1cAMPma (3693) [EC50 (nM)] Mean Value of 0.023 nM.

With “N-ε^20-{2-(2-(2-(2-[2-(2-(4-(hexadecanoylamino)-4- carboxybutyrylamino)ethoxy)ethoxy]acetylamino)ethoxy)ethoxy)acetyl)}- [Gln^12,Leu^14,Gln^28,Lys^20]Exendin-4-amide (from UniProt P26349) (peptide)”, the GLP1cAMPma (3693) [EC50 (nM)] Mean Value stood at 0.021 nM.

“N-ε^27-2-(2-2-(2-(2-(2-(2-(2-(2- (Octadecanoylamino)ethoxy)ethoxy)acetylamino)ethoxy)ethoxy)acetyl- amino)ethoxy)ethoxy)acetyl[Arg^12,Leu^14,Lys^27,Leu^28]Exendin-4- (1-39)-amide (from UniProt P26349) (peptide)” yielded a GLP1cAMPma (3693) [EC50 (nM)] Mean Value of 0.049 nM.

“N-ε^27-2-(2-2-(2-(2-(2-(4-(Hexadecanoylamino)-4(S)- carboxybutyrylamino)ethoxy)ethoxy)acetylamino)ethoxy) ethoxy)acetyl[Arg^12,Leu^14,Lys^27,Leu^28]Exendin-4-(1-39)-peptide amide (from UniProt P26349)” gave a GLP1cAMPma (3693) [EC50 (nM)] Mean Value of 0.093 nM.

In turn, “N-ε^27-2-(2-2-(2-(2-(2-(4-(Octadecanoylamino)-4(S)- carboxybutyrylamino)ethoxy)ethoxy)acetylamino)ethoxy)ethoxy)acetyl [Arg^12,Leu^14,Lys^27,Leu^28]Exendin-4-(1-39)-amide (from UniProt P26349) (peptide)” returned a GLP1cAMPma (3693) [EC50 (nM)] Mean Value of 0.14 nM. To “N-ε^27-2-(2-(2-(2-(2-(2-(4-(Octadecanoylamino)-4(S)- carboxybutyrylamino)ethoxy)ethoxy)acetylamino)ethoxy) ethoxy)acetyl[Arg^12,Leu^14,Lys^27,Ala^29]Exendin-4-(1-39)-amide (from UniProt P26349) (peptide)” belongs 0.24 nM; to “N-ε^27-(2-(2-(2-(2-(2-(2-(2-(2-(2- (Octadecanoylamino)ethoxy)ethoxy)acetylamino)ethoxy)ethoxy)acetyl- amino)ethoxy)ethoxy)acetyl)[Arg^12,Leu^14,Lys^27,Ala^29]Exendin-4-(1- 39)-amide (from UniProt P26349) (peptide)”, 0.08 nM.

For “N-ε^27-(2-(2-(2-(2-(2-(2-(17- carboxyheptadecanoylamino)ethoxy)ethoxy)acetylamino)ethoxy) ethoxy)acetyl)[Leu^14,Arg^12,Lys^27]Exendin-4(1-39)amide (from UniProt P26349) (peptide)”, the GLP1cAMPma (3693) [EC50 (nM)] Mean Value was determined as 0.35 nM. Next, “N-ε^27-(2-(2-(2-(2-(2-(2-(17- carboxyheptadecanoylamino)ethoxy)ethoxy)acetylamino)ethoxy) ethoxy)acetyl[Arg^12,Leu^14,Lys^27,Ala^29]Exendin-4-(1-39)-amide (from UniProt P26349) (peptide)”: 5.6 nM. For the substance “N-ε^27-(2-(2-(2-(2-(2-(2-(17-carboxyheptadecanoylamino-4(S)- carboxybutyrylamino])ethoxy)ethoxy)acetylamino)ethoxy)ethoxy) acetyl)[Leu^14,Arg^12,Lys^27]Exendin-4(1-39)amide (from UniProt P26349) (peptide)”, the GLP1cAMPma (3693) [EC50 (nM)] Mean Value was determined as 0.52 nM. Next, “N-ε^27-[2-(2-[2-(2-[2-(2-[4-hexadecanoylamino-4(S)- carboxybutyrylamino]ethoxy)ethoxy]acetylamino)ethoxy]ethoxy)acetyl] [Arg^12,Leu^14,Lys^27,Ala^29]Exendin-4-(1-39)-amide (from UniProt P26349) (peptide)”: 0.15 nM. For the substance “N-ε^27-[2-(2-[2-(2-[2-(2-[4-hexadecanoylamino-4(S)- carboxybutyrylamino]ethoxy)ethoxy]acetylamino)ethoxy]ethoxy)acetyl] [Arg^12,Leu^14,Lys^27]Exendin-4(1-39)amide (from UniProt P26349) (peptide)”, the GLP1cAMPma (3693) [EC50 (nM)] Mean Value worked out at 0.007 nM. Substance “N-ε^27-{2-(2-(2-(2-[2-(2-(4-(hexadecanoylamino)-4(S)- carboxybutyrylamino)ethoxy)ethoxy)acetylamino)ethoxy)ethoxy)acetyl} [Leu^14,28,Lys^27]Exendin-4(1-39)amide (from UniProt P26349) (peptide)” showed a GLP1cAMPma (3693) [EC50 (nM)] Mean Value of 0.19 nM.

As to “N-ε^27-{2-(2-(2-(2-[2-(2-(4-(hexadecanoylamino)-4(S)- carboxybutyrylamino)ethoxy)ethoxy]acetylamino)ethoxy)ethoxy) acetyl)}[Gln^12,Leu^14,28,Lys^27]Exendin-4(1-39)amide (from UniProt P26349) (peptide)”, the GLP1cAMPma (3693) [EC50 (nM)] Mean Value worked out at 0.041 nM. On to “N-ε^28-(2-(2-(2-(2-(2-(2-(2-(2-(2- (Octadecanoylamino)ethoxy)ethoxy)acetylamino)ethoxy)ethoxy)acetyl- amino)ethoxy)ethoxy)acetyl))[Arg^12,Leu^14,Val^27,Lys^28 Exendin-4(1- 39)amide (from UniProt P26349) (peptide)”, for which the GLP1cAMPma (3693) [EC50 (nM)] Mean Value is 0.025 nM. In the case of “N-ε^28-(2-(2-(2-(2-(2-(2-(2-(2-(2- (Octadecanoylamino)ethoxy)ethoxy)acetylamino)ethoxy)ethoxy)acetyl- amino)ethoxy)ethoxy)acetyl))[Arg^12,Val^27,Lys^28]Exendin-4(1-39)amide (from UniProt P26349) (peptide)”, the GLP1cAMPma (3693) [EC50 (nM)] Mean Value worked out at 0.041 nM. In the case of “N-ε^28-[2-(2-[2-(2-[2-(2-[4-hexadecanoylamino-4(S)- carboxybutyrylamino]ethoxy)ethoxy]acetylamino)ethoxy]ethoxy)acetyl] [alfa-Me-Phe^6,Arg^12,Val^27,Lys^28,Ala^29]Exendin-4-(1-39)-amide (from UniProt P26349) (peptide)”, the GLP1cAMPma (3693) [EC50 (nM)] Mean Value is 0.052 nM. For the substance “N-ε^28-{2-(2-(2-(2-[2-(2-(4-(hexadecanoylamino)-4- carboxybutyrylamino)ethoxy)ethoxy]acetylamino)ethoxy)ethoxy) acetyl)}-[Leu^14,Lys^20]Exendin-4-amide (from UniProt P26349) (peptide)”, the GLP1cAMPma (3693) [EC50 (nM)] Mean Value came out at 0.011 nM. “N-ε^32-(2-(2-(2-(2-(2-(2-(2-(2-(2- (Octadecanoylamino)ethoxy)ethoxy)acetylamino)ethoxy)ethoxy)acetyl- amino)ethoxy)ethoxy)acetyl))[Arg^12,Leu^14,Val^27,Arg^28,Lys^32]Exendin-4 (1-39)amide (from UniProt P26349) (peptide)” showed a GLP1cAMPma (3693) [EC50 (nM)] Mean Value of 0.027 nM. Regarding “N-ε^32-(2-(2-(2-(2-(2-(2-(4-(Octadecanoylamino)-4(S)- carboxybutyrylamino))ethoxy)ethoxy)acetylamino)ethoxy) ethoxy)acetyl[Arg^12,Leu^14,Val^27,Arg^28,Lys^32]Exendin-4-(1-39)amide (from UniProt P26349) (peptide)”, the GLP1cAMPma (3693) [EC50 (nM)] Mean Value was 0.025 nM. To “N-ε^32-[2-(2-[2-(2-[2-(2-[2-(2-[2- (Eicosanoylamino)ethoxy]ethoxy)acetylamino]ethoxy)ethoxy] acetylamino)ethoxy]ethoxy)acetyl][Arg^12,28,Leu^14,Val^27,Lys^32] Exendin-4-(1-39)amide (from UniProt P26349) (peptide)” belongs 0.27 nM; to “N-ε^34-(2-(2-(2-(16-tetrazoylhexadecanoylamino-4(S)- carboxybutyrylamino)ethoxy)ethoxy(acetyl)[Leu^14,Arg^12,27, Lys^34]Exendin-4(1-39)amide (from UniProt P26349) (peptide)”, 0.61 nM; to “N-ε^34-(2-(2-(2-(17-carboxyheptadecanoylamino)ethoxy)ethoxy)acetyl) [Leu^14,Arg^12,27,Lys^34]Exendin-4(1-39)amide (from UniProt P26349) (peptide)”, 0.44 nM.

“N-ε^34-[2-(2-[2-(2-[2-(2-[4-hexadecanoylamino-4(S)- carboxybutyrylamino]ethoxy)ethoxy]acetylamino)ethoxy]ethoxy)acetyl] [Arg^12,27,Leu^14,Lys^34]Exendin-4(1-39)amide (from UniProt P26349) (peptide)” had a GLP1cAMPma (3693) [EC50 (nM)] Mean Value of 0.018 nM. As to “N-ε^34-[2-(2-[2-[4-hexadecanoylamino-4(S)- carboxybutyrylamino]ethoxy]ethoxy)acetyl][Arg^12,27,Leu^14,Lys^34] Exendin-4(1-39)amide (from UniProt P26349) (peptide)”, the GLP1cAMPma (3693) [EC50 (nM)] Mean Value was determined as 0.012 nM.
